In US20100247549A1:

What was measured:
[1] = target: Envelope glycoprotein (E) of antigenic variant DENV-4 v4 (Leu for Pro at position 176 in E) (dengue virus type 4) (UniProt P09866)
[2] = target: Envelope glycoprotein (E) of parental DENV-4 (FRhL) (dengue virus type 4) (UniProt P09866)
[3] = target: Envelope glycoprotein (E) of antigenic variant DENV-4 v3 (Glu for Lys at position 174 in E) (dengue virus type 4) (UniProt P09866); experiment: cell-based or functional assay
[4] = target: Envelope glycoprotein (E) of antigenic variant DENV-4 v4 (Leu for Pro at position 176 in E) (dengue virus type 4) (UniProt P09866); experiment: cell-based or functional assay
[5] = target: Fc receptors on K562 cells; experiment: cell-based or functional assay

Row | Substance | Kd [1] [nM] | Kd [2] [nM] | PRNT50 titer [3] [µg/mL] | PRNT50 titer [4] [µg/mL] | enhancing activity of DENV-4 infection in K562 cells, % of cells infected [5] [%]
1 | Humanized IgG 5H2 ΔD (IgG1 5H2 with a 9-amino-acid deletion, positions 231-239, at the N-terminus of the CH2 domain) (antibody) | 0.32 | 0.23 | > 10 | 0.5 | 
2 | IgG 1A5 ΔA (replacement amino acids at 327, 330 and 331 from the Fc of IgG4) (from UniProt P01857 1-330) (antibody) |  |  |  |  | 37.6
3 | IgG 1A5 ΔB (replacement amino acids at 233-236 from the Fc of IgG2) (from UniProt P01857 1-330) (antibody) |  |  |  |  | 24
4 | IgG 1A5 ΔC (replacements of both variants ΔA and ΔB) (from UniProt P01857 1-330) (antibody) |  |  |  |  | 18.8
